The values that follow come from the supplement of paper PMC9170038.

The data set deals with MS2 coat protein. As to the kind of experiment: apparent KD of MS2 coat protein; designed switch direction (-1 OFF switch, 1 ON switch): -1; higher = weaker reporter binding. In outline:
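Designed RNA switches with common flanks were transcribed on Illumina chips by stalled E. coli RNA polymerase and titrated with SNAP-549-labelled MS2 coat protein, from 0.7 or 1.5 nM doubling to 3 µM, in Tris-HCl pH 7.5 buffer with KCl, MgCl2, BSA, DTT, tRNA and Tween-20. Steps lasted 0.8–1.5 h (lowest) to 10–20 min (highest). Titrations ran without input, with 200 uM small-molecule ligand, or with an oligonucleotide input. Normalised cluster fluorescence was curve-fitted, and apparent KD is the per-design median over clusters.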

[1] abbreviates: Eterna round: R95, input ligand: FMN 200 uM.
Where [2] appears, read: Eterna round: R95, input ligand: microRNA oligo, concentration not stated.
The mark [3] stands for this setting: Eterna round: R95, input ligand: none.
Setting [4] is: input ligand: microRNA oligo, concentration not stated.

Take “GAGUUAACGUGAGGAAUAUACAUGAGGAUCACCCAUGUUAACAAAUAUAUUGCUCGUCUUAUAACAACAAUUAACUC [Alarm 7 - Jieux - Sensor, turn-off variant 1] (Eterna round: R97, puzzle: Sensor, turn-off variant 1)”: the “apparent KD of MS2 coat protein” value amounted to 22.9 nM (input ligand: FMN 200 uM) and 22.8 nM (input ligand: none).

Regarding “UAGUUGCUCAGGGAGUGUGACAUGAGGAUCACCCAUGUGGUGGUAGGGAACAAGCUUUUUGCACGUACUUAUGAGUU [JR_SV3TOV1_Sub008] (puzzle: Sensor v3, turn-off variant 1)”, the “apparent KD of MS2 coat protein” value is, setting by setting: under setting [1], 150 nM; under setting [2], 42.5 nM; under setting [3], 184 nM.

“GCGGACAAGAUGGAGACAUCAGAGACAUGAGGAUCACCCAUGUAGGAUAUCGAUUCGAAACGAAUCGAGAAGGGCAUAGUCCGC [JL denovo 2] (Eterna round: R96, puzzle: Exclusion NG 3)”: the “apparent KD of MS2 coat protein” value worked out at 16.8 nM (input ligand: FMN 200 uM), 13.3 nM under setting [4] and 19.2 nM (input ligand: none).

As for “AGAUCCUGAGUCAGGAUAUAGAGACGGAAGUCGGGCUAGAAGGGACAUGAGGAUCACCCAUGUGGGUUCGUGCC [Lalaarveti] (puzzle: Brourd's mod of Exclusion 4)”, the “apparent KD of MS2 coat protein” value is 33.5 nM under setting [1], 16.3 nM under setting [2] and 23 nM under setting [3].

As for “AUAACAUGCUGGUGAUCAUACAUGAGGAUCACCCAUGUAACAAGCUUUUUGUUCGUCUUAUAAUUUAAGAUCACCAG [Stov1/7-B2] (Eterna round: R97, puzzle: Sensor, turn-off variant 1)”, the “apparent KD of MS2 coat protein” value by setting is: (input ligand: FMN 200 uM) 21.7 nM; (input ligand: none) 19.2 nM.

“GUCAGACGAGGAUAUAAAUUUGAUAACAUGAGGAUCACCCAUGUGAUCGAUAGAUCAAAUUUAGAAGGCGUCUGAC [E5/7-A4] (Eterna round: R97, puzzle: Exclusion 5)”: the “apparent KD of MS2 coat protein” value was 520 nM (input ligand: FMN 200 uM) and 492 nM (input ligand: none).

With “UACAUGAGGAUCACCCAUGUUUUGUCGUGUAUGGUAUUUAUCUAGGAUAUCAAUUUGUUUAGUUAUGAGAAGGAGAAUAUUAAU [JMF's solution 71] (Eterna round: R96, puzzle: Exclusion NG 3)”, the “apparent KD of MS2 coat protein” value amounted to 35.9 nM (input ligand: FMN 200 uM), 33.3 nM under setting [4] and 37.6 nM (input ligand: none).

With “CUGGUCCGAGGAUAUAUUAUGUGAAACAUGAGGAUCACCCAUGUAAUAUGAUGGAUAUAAAUAGAAGGCGGACUAG [Mat - Exclusion 5 - JL mod - D31] (puzzle: Exclusion 5)”, the “apparent KD of MS2 coat protein” value reads like this: under setting [1], 22.4 nM; under setting [2], 19.9 nM; under setting [3], 31.1 nM.

In the case of “CAGGAAAUAGAGGAUAUAGGAGUCGAUAGACUCCUAGAAGGCUAUACAUGAGGAUCACCCAUGUGUCCUACCUG [Fiskers Ex 6 - 69] (puzzle: Exclusion 6)”, the “apparent KD of MS2 coat protein” value under setting [2] came out at 14.6 nM.

For the sequence “AAAUCGCAAGGAUAUCGUCAGUCUGACAUGAGGAUCACCCAUGUUAUCUUGGUAUCAGAGCGAGAAGGUGCAAAGU [Erbied] (Eterna round: R96, puzzle: Exclusion 5)”, the “apparent KD of MS2 coat protein” value (input ligand: FMN 200 uM) is 10.8 nM, the “apparent KD of MS2 coat protein” value under setting [4] came out at 9.45 nM and the “apparent KD of MS2 coat protein” value (input ligand: none) was 14.6 nM.

With “ACUUGCUAUUUGCUCGUCUUAUCCUUGUUUGUUUACUAUACAUGAGGAUCACCCAUGUUAUAUUUAAGGGUGUGAUA [JR_SV3TOV2_Sub075] (puzzle: Sensor v3, turn-off variant 2)”, the “apparent KD of MS2 coat protein” value reads like this: under setting [1], 141 nM; under setting [2], 322 nM; under setting [3], 166 nM.

As to “CGCAAACAUGAGGAUCACCCAUGUGAGGAUAUCAUGCUUCGUAGUAAACUACGAAGUGUGAGAAGGCACGUGCG [Omei Ex1 D4] (Eterna round: R97, puzzle: Exclusion 1)”, the “apparent KD of MS2 coat protein” value runs as follows: (input ligand: FMN 200 uM) 42.9 nM; (input ligand: none) 29.9 nM.

In the case of “GAAGCACAUGAGGAUCACCCAUGUAAGGAUAUACGUCUGGUCCGGCCGGACCAGUACCGUAGAAGGUACGUAAA [Excls-Ia] (puzzle: Exclusion 1)”, the “apparent KD of MS2 coat protein” value under setting [2] turned out to be 18.1 nM.

As to “GGCUGACAUGUAGGAUAUCUGCACGUUUAGUGCAGAGAAGGACAUGAGGAUCACCCAUGUAUAGCGACUUCGGUCGCAACAGCC [ENG1/2-A2] (Eterna round: R96, puzzle: Exclusion NG 1)”, the “apparent KD of MS2 coat protein” value runs as follows: (input ligand: FMN 200 uM) 115 nM; under setting [4], 31.6 nM; (input ligand: none) 48.3 nM.

With “GAUCAUGCAGGAUAUACAGUAACCAUGAAAACAUGGUUGUAACAUGAGGAUCACCCAUGUAGAAGGGCAUGAUC [Omei Ex2 A4] (Eterna round: R97, puzzle: Exclusion 2)”, the “apparent KD of MS2 coat protein” value (input ligand: FMN 200 uM) was 23.5 nM and the “apparent KD of MS2 coat protein” value (input ligand: none) is 15.4 nM.

On to “ACAGUGUUAGGAUAUCUGAGAGUUAGUCUCGACUAGUCGAAGGAGAAGGAACAUGAGGAUCACCCAUGUAGAUC [EX4 #77] (Eterna round: R97, puzzle: Exclusion 4)”, for which the “apparent KD of MS2 coat protein” value by setting is: (input ligand: FMN 200 uM) 144 nM; (input ligand: none) 35.8 nM.

Turning to “UGCCUACAUGAGGAUCACCCAUGUGAGGAUAUCCUGCGAGGAUCAAAAGAUCCUCGUGGGAGAAGGCACAUGAA [Omei Ex1 B1] (Eterna round: R97, puzzle: Exclusion 1)”, the “apparent KD of MS2 coat protein” value was found to be 146 nM (input ligand: FMN 200 uM) and 38.5 nM (input ligand: none).

“GGUUGGCGAGGAUAUACAUGAGGAUCACCCAUGUGAGAGAAAAAAGUGAGGAAGAAAAGUAGAAGGCGCUGACG [salish99-ex3-champ] (puzzle: Exclusion 3)”: the “apparent KD of MS2 coat protein” value runs as follows: under setting [1], 412 nM; under setting [2], 49.3 nM; under setting [3], 44.5 nM.

With “GCAUCCAAUGUGAGGAUAUACCUCUGGAUACAUAGGUAGAAGGCACAUGAGGAUCACCCAUGUCCUAAGGAUGC [Fiskers BMX 4 - 28] (puzzle: Brourd's mod of Exclusion 4)”, the “apparent KD of MS2 coat protein” value under setting [2] turned out to be 75 nM.

Turning to “UUCACAUGGACAUGAGAUCACAUGAGGAUCACCCAUGUGAAUAACAAGCUUUUUGCUCGUCUUAUGUCCAAUAAUAG [Stov1/14-C2] (Eterna round: R97, puzzle: Sensor, turn-off variant 1)”, the “apparent KD of MS2 coat protein” value is 13.7 nM (input ligand: FMN 200 uM) and 12.6 nM (input ligand: none).

Take “UAAAAGUCAGGAUAUGCGAGAGAUUGAAGUGUGGCAAGGUAGCAGAAGGGACAUGAGGAUCACCCAUGUGUGGC [JR_Exclu4_Sub096] (puzzle: Exclusion 4)”: the “apparent KD of MS2 coat protein” value under setting [2] was determined as 49 nM.

For the sequence “GGUGUGCCAGUCAGGAUAUGAUCCACGCCCGUAGGUCAGAAGGGACUUGAGGAUCACCCAAGUUGCAAGAAAGA [Gesoxedi] (Eterna round: R97, puzzle: Brourd's mod of Exclusion 4)”, the “apparent KD of MS2 coat protein” value reads like this: (input ligand: FMN 200 uM) 100 nM; (input ligand: none) 97.3 nM.

For “GCAUGUCUUAAGGAUAUGCUUAGGCGUGAGCCGGCAGAAGGUAAGACAUGAGGAUCACCCAUGUUUUCCUAAAA [jl-ex6-4.31 ViennaUCT mod] (Eterna round: R97, puzzle: Exclusion 6)”, the “apparent KD of MS2 coat protein” value reads like this: (input ligand: FMN 200 uM) 171 nM; (input ligand: none) 24.4 nM.

Turning to “UCCAACCCUGUGAGGAUAUCGUCCAUUUUUUGUUCCGAGAAGGCACAUGAGGAUCACCCAUGUUUUUUAUUUUU [JR_BMOE4_Sub078] (puzzle: Brourd's mod of Exclusion 4)”, the “apparent KD of MS2 coat protein” value under setting [2] came out at 34.9 nM.

For “GCACGAAGUGUAGGAUAUCUGUGCGAUUAGCUCAGAGAAGGACACAUGAGGAUCACCCAUGUUUUCCACGGAUAGCAAACGUGC [Eli exng1 - 059] (Eterna round: R96, puzzle: Exclusion NG 1)”, the “apparent KD of MS2 coat protein” value turned out to be 21 nM (input ligand: FMN 200 uM), 14.4 nM under setting [4] and 19.6 nM (input ligand: none).

For “CCGCAAAAGCAGGAUAUCGUAUCGGAUACGAUACGAGAAGGGCUAACAUGAGGAUCACCCAUGUGUCCUAGCGG [Fiskers Ex 6 - 38] (puzzle: Exclusion 6)”, the “apparent KD of MS2 coat protein” value under setting [2] stood at 15.4 nM.

On to “CAGUACUGAGGAUAUACAUGAGGAUCACCCAUGUGUUCCAGCUAGGAUACUAGCAAUGGAAGAAGGCAGUACUG [Mat - Exclusion 3 - Eli Mod - D1] (Eterna round: R97, puzzle: Exclusion 3)”, for which the “apparent KD of MS2 coat protein” value (input ligand: FMN 200 uM) was determined as 17.2 nM and the “apparent KD of MS2 coat protein” value (input ligand: none) is 16.8 nM.

As to “AUUUAAUUUAAUAAGAUCACAUGAGGAUCACCCAUGUAUAUAUAGGAUAUCAGCUCGUUUAGAGCUGAGAAGGAUAUAUACAUG [ExNG3/8-A2] (Eterna round: R96, puzzle: Exclusion NG 3)”, the “apparent KD of MS2 coat protein” value was 22.6 nM (input ligand: FMN 200 uM), 20.2 nM under setting [4] and 36.6 nM (input ligand: none).

Take “GGAACGGCGAACAAGGCCCACAUGAGGAUCACCCAUGUGGCUGGGUGAUCUCGCUCGUCUUAUAUAUGGCUGGACCG [salish99-s2-off-006] (Eterna round: R96, puzzle: Sensor v2, turn-off variant)”: the “apparent KD of MS2 coat protein” value was found to be 146 nM (input ligand: FMN 200 uM), 23.8 nM under setting [4] and 104 nM (input ligand: none).

With “UCACGGGACUGAGGAUAUACAUUUAUUAUUUUUGUAGAAGGCAGAAUGUUAGUUUUUUCACUAUACAUGAGGAUCACCCAUGUU [JR_ExcNG1_Sub084] (Eterna round: R96, puzzle: Exclusion NG 1)”, the “apparent KD of MS2 coat protein” value under setting [4] stood at 20.6 nM.

On to “GUAUACAGAGGAUAUACGUGCGGCGUCAAAUGUCCAAGAGUACAUGAGGAUCACCCAUGUAGAAGGUUGAAAGC [Eternabot (L1) Solution 15] (Eterna round: R97, puzzle: Exclusion 2)”, for which the “apparent KD of MS2 coat protein” value is 21.7 nM (input ligand: FMN 200 uM) and 26.6 nM (input ligand: none).
